T1: BmEcR (ecdysone receptor);BmUSP (ultraspiracle) (Bombyx mori;Bombyx mori, UniProt P49881;P49700 1-606;1-462, |)
T1 sequence 1: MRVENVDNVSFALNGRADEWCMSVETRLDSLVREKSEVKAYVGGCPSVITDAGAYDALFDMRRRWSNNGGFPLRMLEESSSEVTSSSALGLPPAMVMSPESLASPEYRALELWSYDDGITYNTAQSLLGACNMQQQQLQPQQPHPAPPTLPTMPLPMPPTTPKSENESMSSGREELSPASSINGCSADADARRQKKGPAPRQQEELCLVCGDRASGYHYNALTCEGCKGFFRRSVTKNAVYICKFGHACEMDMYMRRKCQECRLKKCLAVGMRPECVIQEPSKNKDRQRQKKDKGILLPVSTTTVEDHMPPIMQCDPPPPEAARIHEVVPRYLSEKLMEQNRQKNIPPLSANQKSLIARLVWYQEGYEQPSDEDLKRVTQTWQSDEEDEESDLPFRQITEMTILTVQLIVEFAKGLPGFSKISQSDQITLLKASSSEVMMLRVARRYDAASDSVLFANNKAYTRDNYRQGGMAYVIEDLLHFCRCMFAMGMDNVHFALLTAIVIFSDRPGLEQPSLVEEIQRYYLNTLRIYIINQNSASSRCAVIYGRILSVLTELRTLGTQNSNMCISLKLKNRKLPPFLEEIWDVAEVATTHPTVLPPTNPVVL
T1 sequence 2: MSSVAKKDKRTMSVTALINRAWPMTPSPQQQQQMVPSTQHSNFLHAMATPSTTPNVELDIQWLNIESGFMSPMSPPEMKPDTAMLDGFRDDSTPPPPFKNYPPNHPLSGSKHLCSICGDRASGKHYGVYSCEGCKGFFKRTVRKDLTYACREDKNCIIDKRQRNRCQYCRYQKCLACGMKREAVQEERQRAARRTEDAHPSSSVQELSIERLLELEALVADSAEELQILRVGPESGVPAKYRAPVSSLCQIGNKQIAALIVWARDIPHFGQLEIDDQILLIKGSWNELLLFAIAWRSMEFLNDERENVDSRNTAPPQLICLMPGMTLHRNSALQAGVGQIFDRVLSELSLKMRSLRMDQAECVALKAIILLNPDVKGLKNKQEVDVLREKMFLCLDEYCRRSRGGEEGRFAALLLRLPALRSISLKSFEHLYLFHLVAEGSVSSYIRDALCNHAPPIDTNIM

B1: EcRE-like 1 mutant probe (Bio-ERRE-1 mut) (dsDNA)
DNA 1: ATTAGACGATGACGGGTCATGACCT
DNA 2: AGGTCATGACCCGTCATCGTCTAAT
B2: EcRE-like 2 probe (Bio-ERRE-2) (dsDNA)
DNA 1: TAAAGAACCTTTATTAAAATTAAAATA
DNA 2: TATTTTAATTTTAATAAAGGTTCTTTA
B3: EcRE-like 1 probe (Bio-ERRE-1) (dsDNA)
DNA 1: ATTAAGTAGCAGTAAACTGTGACCT
DNA 2: AGGTCACAGTTTACTGCTACTTAAT
B4: EcRE-like 3 probe (Bio-ERRE-3) (dsDNA)
DNA 1: GTTCCGAAATAAAATTACCTGATGGTA
DNA 2: TACCATCAGGTAATTTTATTTCGGAAC
B5: EcRE-like 8 probe (Bio-ERRE-8) (dsDNA)
DNA 1: GAGACAGCGTTAGCTGATATTCTAAAT
DNA 2: ATTTAGAATATCAGCTAACGCTGTCTC

Target: T1, BmEcR (ecdysone receptor);BmUSP …
Assay: EMSA; EMSA: 25 C for 25 min; Beyotime chemiluminescent EMSA kit (binding buffer not stated); 5% native PAGE in Tris-borate-EDTA (45 mM Tris-borate, 1 mM EDTA, pH 8.3); probe 5 uM, BmEcR 0.3 ug/uL, BmUSP 0.45 ug/uL
Conditions: protein: recombinant;recombinant; tags: ;; copies: 1;1; label: 3'-biotin; blunt

Row | Binder | binding result
1 | B1 | no binding
2 | B2 | no binding
3 | B3 | binds
4 | B4 | no binding
5 | B5 | no binding
